The target in this assay is Recombinant FEN-1 (pET-FEN-1) (human, UniProt P39748 1-380). Description: pull-down.
Sequence of Recombinant FEN-1 (pET-FEN-1) (P39748 whole entry): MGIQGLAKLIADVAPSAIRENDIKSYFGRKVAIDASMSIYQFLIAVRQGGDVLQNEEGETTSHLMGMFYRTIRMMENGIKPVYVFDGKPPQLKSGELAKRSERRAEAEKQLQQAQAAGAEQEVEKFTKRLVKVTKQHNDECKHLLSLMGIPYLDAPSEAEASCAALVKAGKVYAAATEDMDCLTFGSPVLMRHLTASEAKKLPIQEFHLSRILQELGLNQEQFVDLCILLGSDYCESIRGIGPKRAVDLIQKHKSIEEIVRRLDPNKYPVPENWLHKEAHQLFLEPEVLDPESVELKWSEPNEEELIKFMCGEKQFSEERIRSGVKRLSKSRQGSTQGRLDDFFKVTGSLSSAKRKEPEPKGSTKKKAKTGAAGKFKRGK

B1: GST-RECQ1 RQC domain (residues 418-592) (domain or fragment, human, UniProt P46063 418-592, looked up)
chain: YGFGDIFRISSMVVMENVGQQKLYEMVSYCQNISKCRRVLMAQHFDEVWNSEACNKMCDNCCKDSAFERKNITEYCRDLIKILKQAEELNEKLTPLKLIDSWMGKGAAKLRVAGVVAPTLPREDLEKIIAHFLIQQYLKEDYSFTAYATISYLKIGPKANLLNNEAHAITMQVTK
For B1, the binding result is reported as “binds”.

B2: GST-RECQ1 C-terminal domain (residues 592-649) (domain or fragment, human, UniProt P46063 592-649, looked up)
chain: KSTQNSFRAESSQTCHSEQGDKKMEEKNSGNFQKKAANMLQQSGSKNTGAKKRKIDDA
In the case of B2, the binding result is listed as “binds”.

Source of the values: paper PMC4441847 (The Biochemical journal, 2015).
